Reference: patent EP1902729A1

Target: HIF2α protein
Experiment: cell-based or functional assay

expression and transcriptional activity of HIF2α: 2 fold
Substance: Int6-ΔC (mutant in which the Int6 PINT (PCI) domain has been deleted)
